Some results are limits rather than exact numbers.

The target of the first assay is HLA-A*0201 (human). Kind of assay: inhibition of 125I-labelled probe peptide binding to purified HLA-A*0201, gel filtration.
Details: not given
Background: Size exclusion chromatography separates by hydrodynamic size, large species first.
A word on the IC50: it is the concentration that inhibits the measured activity by half. With LLLARAASLSL (modifications not checked) [PAP.6 …], the IC50 is below 200 nM.

MLLRLSEPAEL (modifications not checked): the IC50 is below 200 nM.

TLMSAMTNL (modifications not checked) [PAP.112 …]: the IC50 was below 200 nM.

The same assay, now with this note: remark: other sources report otherwise.
As to KLQCVDLHV (modifications not checked) [PSA.166 …], the IC50 was below 200 nM. The same measure, in the same setting: the value for FLTPKKLQCV (modifications not checked) [PSA.161 …] was below 200 nM; that for VLAKELKFV (modifications not checked) [PAP.30 …] was below 200 nM; that for ALGTTCYA (modifications not checked) [PSA.143 ALGTTCYA] was below 200 nM. Same read-out and setting: the value for LLFFWLDRSV (modifications not checked) [PAP.21 …] was below 200 nM. In turn, FLNESYKHEQV (modifications not checked) [PAP.92 …] came in with an IC50 below 200 nM. On the same count and under the same terms, the value for LMLLRLSEPA (modifications not checked) [PSA.117 …] was below 200 nM. Regarding ILLWQPIPV (modifications not checked) [PAP.135 …], the IC50 is below 200 nM. On the same count and under the same terms, the value for MLLRLSEPA (modifications not checked) was below 200 nM.

The target in the next assay is HLA-A*0201 (human). The experiment in a line: inhibition of 125I-labelled standard peptide binding to purified HLA-A*0201, gel filtration.
Details: not given
Consider ATQIPSYKKL (modifications not checked) [… (PAP, position 274)], for which the binding affinity ratio (IC50 of standard peptide / IC50 of test peptide) came to 0.0002. The same measure, in the same setting: in the case of CAQVHPQKVT (modifications not checked) it was 0.0001.

As to CIRNKSVILL (modifications not checked), the binding affinity ratio (IC50 of standard peptide / IC50 of test peptide) was determined as 0.0001. Regarding CAQVHPQKV (modifications not checked), the binding affinity ratio (IC50 of standard peptide / IC50 of test peptide) turned out to be 0.0002. The same measure, in the same setting: in the case of CALPERPSL (modifications not checked) [… (PSA, position 230)] it was 0.0001.

Turning to AVCGGVLV (modifications not checked) [AVCGGVLV (PSA, position 44)], the binding affinity ratio (IC50 of standard peptide / IC50 of test peptide) was 0.0003. As for AVEPDRYVIL (modifications not checked), the binding affinity ratio (IC50 of standard peptide / IC50 of test peptide) amounted to 0.0002. The same measure, in the same setting: the value for CIRNKSVI (modifications not checked) [CIRNKSVI (PSA, position 62)] was 0.0001; that for CIRNKSVIL (modifications not checked) was 0.0003. Same read-out and setting: the value for CMTTNSHQGT (modifications not checked) [… (PAP, position 372)] was 0.0002; that for AVEPDRYVI (modifications not checked) was 0.0001. Still for that read-out and setting: in the case of AVKVMDLPT (modifications not checked) [… (PSA, position 131)] it was 0.0001; in that of CVDLHVISNDV (modifications not checked) [… (PSA, position 169)], 0.0001.

Still in this assay, the particulars now being: remark: other sources report otherwise.
With CALPEKPAV (modifications not checked) [… (Kallikrein, position 234)], the binding affinity ratio (IC50 of standard peptide / IC50 of test peptide) was found to be 0.0002.

In a further assay the target is HLA-A*0201 (human). Kind of assay: competitive inhibition of 125I-labelled standard peptide binding to purified HLA, gel filtration; ratio = IC50 standard / IC50 test peptide.
Details: not given
With VLVASRGRAV (modifications not checked), the binding affinity ratio came to 0.0003.

Take VLVHPQWVLT (modifications not checked) [… (PSA, position 49), listing 1 of 2 here]: the binding affinity ratio worked out at 0.0001. Still for that read-out and setting: the value for VLVASRGRA (modifications not checked) was 0.0001.

In the case of VLSIALSVGCT (modifications not checked) [… (Kallikrein, position 5)], the binding affinity ratio was found to be 0.0002. On the same count and under the same terms, the value for VMDLPTQEPA (modifications not checked) [… (PSA, position 134)] was 0.0001; that for VLRMMNDQL (modifications not checked) was 0.0001; that for VILLGRHSL (modifications not checked) [… (PSA, position 68)] was 0.0003. For VATARRPRWL (modifications not checked) [… (PSM, position 12)], the binding affinity ratio was found to be 0.0001.

Consider VLVHPQWVLT (modifications not checked) [… (Kallikrein, position 53), listing 2 of 2 here], for which the binding affinity ratio is 0.0001. Same read-out and setting: in the case of VLVHPQWV (modifications not checked) [VLVHPQWV (PSA, position 49)] it was 0.0001; in that of VLRMMNDQLM (modifications not checked), 0.0003; in that of VLVNEILNHM (modifications not checked) [… (PAP, position 262)], 0.0008.

In the case of VLVHPQWV (modifications not checked) [VLVHPQWV (Kallikrein, position 53)], the binding affinity ratio was 0.0001. Turning to VAYINADSSI (modifications not checked) [… (PSM, position 447)], the binding affinity ratio was 0.0001. In the case of VISNDVCA (modifications not checked) [VISNDVCA (PSA, position 174)], the binding affinity ratio turned out to be 0.0001. As for VLTAAHCI (modifications not checked) [VLTAAHCI (PSA, position 56)], the binding affinity ratio was 0.0001. In the case of VLRKYADKI (modifications not checked) [… (PSM, position 603)], the binding affinity ratio came out at 0.0002. On the same count and under the same terms, in the case of VLVHPQWVL (modifications not checked) [… (Kallikrein, position 53), listing 1 of 2 here] it was 0.02; in that of VLVHPQWVL (modifications not checked) [… (PSA, position 49), listing 2 of 2 here], 0.02. As to VLLSYPNKT (modifications not checked) [… (PSM, position 115)], the binding affinity ratio is 0.0002. As for VIGTLRGAV (modifications not checked) [… (PSM, position 358)], the binding affinity ratio worked out at 0.0002.

Staying with this assay, now noted: remark: other sources report otherwise.
VISNDVCAQV (modifications not checked) [… (PSA, position 174)]: the binding affinity ratio stood at 0.0008.
